The supplement of paper PMC7125110
± gives the standard error. Variants at the floor of the assay were thinned out.

B1: glmS ribozyme (parent)
chain: AUAAAAGCGCCAGAACUACAGAAAUGUAGUUGACGAGGAGGAGGUUUAUCGAAUUUUCGGCGGAUGCCUCCAAA

Legend:
Details in all cases: with glucosamine-6-phosphate
[1] = variants of: B1; test: self-cleavage kobs at 40 uM GlcN6P; higher = faster cleavage; RNA array
Outline: (§1)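 Using a hybridised Cy3 probe at 37 °C, barcoded ribozyme variants transcribed in situ by E. coli RNA polymerase on sequenced MiSeq chips were monitored across tiles imaged over ~14 h. The flow contained glucosamine-6-phosphate from 40 μM to 10 mM in HEPES/KCl/Mg(OAc)2 buffer. Signals were normalised to baseline and to non-cleaving reference variants before per-tile medians were fit to one- or two-exponential decays to yield kobs. Weighted Michaelis–Menten fits across concentrations gave kcat and KM.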

[2] = variants of: B1; test: self-cleavage kobs at 10000 uM GlcN6P; higher = faster cleavage; RNA array
Outline: as §1

[3] = variants of: B1; test: self-cleavage kobs at 2500 uM GlcN6P; higher = faster cleavage; RNA array
Outline: as §1

[4] = variants of: B1; test: self-cleavage kobs at 640 uM GlcN6P; higher = faster cleavage; RNA array
Outline: as §1

[5] = variants of: B1; test: self-cleavage kobs at 160 uM GlcN6P; higher = faster cleavage; RNA array
Outline: as §1

Variant | self-cleavage kobs at 40 uM GlcN6P [1] | self-cleavage kobs at 10000 uM GlcN6P [2] | self-cleavage kobs at 2500 uM GlcN6P [3] | self-cleavage kobs at 640 uM GlcN6P [4] | self-cleavage kobs at 160 uM GlcN6P [5]
A15G G21U A33G | < 1e-05 s⁻¹ | < 1e-05 s⁻¹ |  |  | 
A14C C16G C50G | 8.94e-05 ± 3.4e-05 s⁻¹ |  |  |  | 
A14C C34G G40U | < 1e-05 s⁻¹ |  | < 1e-05 s⁻¹ |  | 
A14G C16A U54G | 0.000211 ± 4.8e-05 s⁻¹ | 0.00361 ± 0.00067 s⁻¹ |  |  | 
C16U C50A A52C U65C G66U | < 1e-05 s⁻¹ |  |  | < 1e-05 s⁻¹ | 
A15C C71A | 3.98e-05 ± 9.4e-06 s⁻¹ | 0.00151 ± 0.00019 s⁻¹ | 0.000291 ± 7.5e-05 s⁻¹ | 0.000136 ± 5.9e-05 s⁻¹ | 8.22e-05 ± 3.4e-05 s⁻¹
A14U G37A A39C G59C | < 1e-05 s⁻¹ |  |  |  | 
A15G G44U C68G | < 1e-05 s⁻¹ |  |  |  | 
G13U U49A C58A C68U C70U | < 1e-05 s⁻¹ |  |  |  | 
A14G U56C C61G | < 1e-05 s⁻¹ | < 1e-05 s⁻¹ |  |  | 
A14C G32A A52U | < 1e-05 s⁻¹ | 9.78e-05 ± 1.9e-05 s⁻¹ | 5.9e-05 ± 2.1e-05 s⁻¹ |  | 
C16G U56A C71U | 0.000174 ± 5.5e-05 s⁻¹ |  |  |  | 
A14G G38U C50U | < 1e-05 s⁻¹ |  |  |  | 
A15G U30C C67A | 0.000291 ± 6.8e-05 s⁻¹ | 0.0108 ± 0.0031 s⁻¹ | 0.00517 ± 0.0012 s⁻¹ | 0.00103 ± 0.00029 s⁻¹ | 0.00105 ± 0.00028 s⁻¹
A15U G38U C50G | 0.000125 ± 3.7e-05 s⁻¹ |  |  |  | 
G13U G62A | < 1e-05 s⁻¹ | < 1e-05 s⁻¹ | < 1e-05 s⁻¹ |  | 
C16U G51A | < 1e-05 s⁻¹ |  |  |  | < 1e-05 s⁻¹
C16G U31A | 5.78e-05 ± 2.1e-05 s⁻¹ | 0.00174 ± 0.0006 s⁻¹ | 0.00117 ± 0.00048 s⁻¹ | 0.000204 ± 8.2e-05 s⁻¹ | 4.17e-05 ± 1.9e-05 s⁻¹
A14G A15C U54G | 0.000827 ± 0.00016 s⁻¹ | 0.048 ± 0.017 s⁻¹ |  |  | 
C16U A33U G51C | < 1e-05 s⁻¹ |  |  |  | 
A15U G29U U54G | 7.25e-05 ± 1.8e-05 s⁻¹ | 0.00243 ± 0.00048 s⁻¹ |  |  | 
A15C A39G U56G | 4.71e-05 ± 1.6e-05 s⁻¹ | 0.00218 ± 0.00029 s⁻¹ |  |  | 
A15C A42C | < 1e-05 s⁻¹ | < 1e-05 s⁻¹ |  | < 1e-05 s⁻¹ | 
A14U G29U G35A | < 1e-05 s⁻¹ |  |  |  | 
C16A U57G | < 1e-05 s⁻¹ |  |  |  | 
A15U G44C U56C | < 1e-05 s⁻¹ | < 1e-05 s⁻¹ | < 1e-05 s⁻¹ | < 1e-05 s⁻¹ | < 1e-05 s⁻¹
A15U G40U G44A | < 1e-05 s⁻¹ | < 1e-05 s⁻¹ |  |  | 
A15G C70U | 0.00115 ± 0.00011 s⁻¹ | 0.0598 ± 0.012 s⁻¹ | 0.0168 ± 0.0062 s⁻¹ | 0.0045 ± 0.00057 s⁻¹ | 0.00217 ± 0.00032 s⁻¹
